# Experimental data: the DeepSol protein solubility set
# Test: soluble on expression in E. coli; label from the status in PepcDB or PDB records
row,Sequence,soluble on expression in E. coli
1,MSICDPALRNALRTLKLSGMLDTLDARLAQTRNGDLGHLEFLQALREDEIARRESAALTRRLRRAKFEAQATFEDFDFTANPKLPGAMLRDLAALRWLDAGESVILHGPVGVGKTHVAQALVHAVARRGGDVRFAKTSRMLSDLAGGHADRSWGQRIREYTKPLVLILDDFAMREHTAMHADDLYELISDRAITGKPLILTSNRAPNNWYGLFPNPVVAESLLDRLINTSHQILMDGPSYRPRKRPGRTTS,not soluble
2,MGSDKIHHHHHHMNLPLQGIKVVELGQLIAGPFAAKILAEFGAEVIKVEPPLTGDPLRKWRLLHNGTSVWWAVQSRNKQSVTLDLRQPQAQEMVRRLIRDADVLVENFRPGTLEGWGLSWEDLHALNPKLIMLRVSGYGQTGPYRDRPGFGVIGEAMGGLRHLSGEVGRTPVRVGVSIGDSLAALHGVIGILLALRHREQNAGEGQQIDVALYESVFNMMESLIPEYSVFNTVREPAGSSLPGIAPTNAYRCNDGKYALIAGNGDSIYRRLMEKIGRPDLANDPQLEHNDGRVRHVARIDAAISTWTAERSLDDVLAALTDARIPAGKIYDAADIASDPHYQARDMLLQSALDDGTPVTVPGIVPKLQDTPGQIRSPAPTLGQHTDAVLQAHGIDAATREEWRRLGII,not soluble
3,MSLMVIRPVERSDVSALMQLASKTGGGLTSLPANEATLSARIERAIKTWQGELPKSEQGYVFVLEDSETGTVAGICAIEVAVGLNDPWYNYRVGTLVHASKELNVYNALPTLFLSNDHTGSSELCTLFLDPDWRKEGNGYLLSKSRFMFMAAFRDKFNDKVVAEMRGVIDEHGYSPFWQSLGKRFFSMDFSRADFLCGTGQKAFIAELMPKHPIYTHFLSQEAQDVIGQVHPQTAPARAVLEKEGFRYRNYIDIFDGGPTLECDIDRVRAIRKSRLVEVAEGQPAQGDFPACLVANENYHHFRVVLVRTDPATERLILTAAQLDALKCHAGDRVRLVRLCAEEKTAEGHHHHHH,soluble
4,MGSDKIHHHHHHMGDLSDIRVFLAVAQQRSFTAAARQLSMTPPTVTRSVSALEQSLGVQLLLRTTRQVSLTSAGAVYAARVEPLIRQFDQVRDDLREEQGDVAGLIRINAPLSLGQQLLPDIVSGFRAEHPQVSVSLSLTDRFIDIVSERFDLALRVSEAPRDRSTIWRKVCRVRRILVASPGYLAIFGTPETPDDLSRHGCIAYDEEAISETWELTNGGRTRKALAGKVLAANNGELIAKLVEDGQGLALLPHFIVGDALASARRAEAGPCRVGASGALADIVLSALRETADARCEILGLLRKICYPYAPAVKKRRTQVLFSRRKASFPAKGEHMLQEFDDALRHASFESDLNGLYAALLLSRSFGSSESRIRSLGRSLPDLSQQKSRFVWRRE,not soluble
5,SYYHHHHHHDYDIPTTENLYFQGAMGSFGSKDAAADGKPLVVTTIGMIADAVKNIAQGDVHLKGLMGPGVDPHLYTATAGDVEWLGNADLILYNGLHLETKMGEVFSKLRGSRLVVAVSETIPVSQRLSLEEAEFDPHVWFDVKLWSYSVKAVYESLCKLLPGKTREFTQRYQAYQQQLDKLDAYVRRKAQSLPAERRVLVTAHDAFGYFSRAYGFEVKGLQGVSTASEASAHDMQELAAFIAQRKLPAIFIESSIPHKNVEALRDAVQARGHVVQIGGELFSDAMGDAGTSEGTYVGMVTHNIDTIVAALAR,soluble
6,MIESKTYAVLGLGNGGHAFAAYLALKGQSVLAWDIDAQRIKEIQDRGAIIAEGPGLAGTAHPDLLTSDIGLAVKDADVILIVVPAIHHASIAANIASYISEGQLIILNPGATGGALEFRKILRENGAPEVTIGETSSMLFTCRSERPGQVTVNAIKGAMDFACLPAAKAGWALEQIGSVLPQYVAVENVLHTSLTNVNAVMHPLPTLLNAARCESGTPFQYYLEGITPSVGSLAEKVDAERIAIAKAFDLNVPSVCEWYKESYGQSPATIYEAVQGNPAYRGIAGPINLNTRYFFEDVSTGLVPLSELGRAVNVPTPLIDAVLDLISSLIDTDFRKEGRTLEKLGLSGLTAAGIRSAVE,soluble
7,MGHHHHHHMSEFYKLAPVDKKGQPFPFDQLKGKVVLIVNVASKCGFTPQYKELEALYKRYKDEGFTIIGFPCNQFGHQEPGSDEEIAQFCQLNYGVTFPIMKKIDVNGGNEDPVYKFLKSQKSGMLGLRGIKWNFEKFLVDKKGKVYERYSSLTKPSSLSETIEELLKEVE,soluble
8,NELSQERTARLNELQRALVMMDSDFRQIALRQTRTNGEEPSKKLLHWADYLLDSDNKGIMFARLGWHNPQQQFPRGEVTKVGYRIKDERLERVWWRYPDTPAGQEGVVTPLLSDVEELNVRFYDGKQWINEWSNELTLPAAISVELTLKDYGKIARTYLTPEGN,soluble
9,MAHHHHHHMRLLTHNFLACLKCDTYPLLVTAAEMEEIPVEYDAEFTRRMLARVDYASLRTTFHALREAHESVRGPSHDEGADTAEGALASSELPETMEGADFSDHSAFLRTAHYAMNVVAVRNGTLECPACKTTFSINDFIPNFVPEAK,soluble
10,MCMGIFKRVSNMVKAKVNNTLDEMENPIELLDQKIRDMEESLNKAKISSAQILGNAHEIEKKLQKARLESEDYDSKVKLAVKNGNDDLAKRALERKLDADKRESLQKSYEDASQKSKVIKDKLRTLEEEIEKTRAYRDEAAARFNNAEATKKVNEVLSNVDTGSNSINLDDIERKIERKEAMAEGLGDLRNEDSLEKEFEKLNETNLDDELAKYKNNIKLEHHHHHH,soluble
11,MSGLLNFGVPKGSLENATVELFRKAGWQISISSRSYFPGVDDDEMNCKLIRPQEMGKYVERGTIDAGIAGRDWVRENESDVVEVCEMVYSKVSRRPARWVLVVTRDSAVQKPEDLHGATISTELVGFTKRYFAERNIPVTVEFSWGAT,not soluble
12,MRGSHHHHHHLVPRGSVQVISSYDQFKQVTGGDKVVVIDFWATWCGPCKMIGPVFEKISDTPAGDKVGFYKVDVDEQSQIAQEVGIRAMPTFVFFKNGQKIDTVVGADPSKLQAAITQHSA,soluble
13,MATSVLCCLRCCRDGGTGHIPLKEMPAVQLDTQHMGIWGIGVATQKVNLNQIPLGRDMHSLVMRNDGALYHNNEEKNRLPANSLPQEGDVVGITYDHVELNVYLNGKNMHCPASGIRGTVYPVVYDDDSAILDCQFSEFYHTPPPGFEKILFEQQIF,not soluble
14,DARFSLGGYAGGMYDVHVKNSWYVQPQLLFTYEEFRSKTRLGTDSFFSKFNLELPILASYNVALNNKWNLHINAGPYLSYAMFGRDKSIDYAYGNGMHSSLGWWHQDFPDHFTYGGRAGVSLESEHFIYTIDGKCSLRKRPFGRSVSLSAGVGYKF,not soluble
15,RPAVFPRMGVLPARVALLGQGQHWGVDFCLNVFRANFAEDREIQSEDVVRDLLRAQDLDADALIAQARQESTKEALRKQVDRARALGIFGAPTFMVDGEMFWGNDRLED,not soluble
16,MQTQKPVFSEVTVHDPSIIKANGTYYVFGSHLASAKSTDLMNWTQISSSVHDGNPLIPNVYEELKETFEWAESDTLWAPDVTQLEDGKFYMYYNACRGDSPRSALGLAVADDIEGPYKNKGIFLKSGMDGISNDGTPYDATKHPNVVDPHTFFDQNGKLWMVYGSYSGGIFILEMDKKTGFPLPGQGYGKKLIGGNHSRIEGAYILYHPETQYYYLYMSFGGLAADGGYNIRVARSKNPDGPYYDAEGHAMIDVRGKEGTLFDDRSIEPYGVKLMGNFSFNNKNGYVSPGHNSAFYDEKSGKSYLIFHTRFPGRGEEHEVRVHQLLMNKQGWPVVAPHRYAGEKLEKVKKSDVIGDYELVRHGKDISADIKESKEIRLNQNGKITGAVAGTWKNTGHNKIELKIDGKTYDGVFLRQWDAASERKVMTFSALSREGDAVWGSSLKRAEFLEHHHHHH,soluble
17,MGSDKIHHHHHHMEFIEFGYGTSTDENSLKAGAHAASDALKMMKKYSEKPNIVFLYSSPDYDPEEVLNGVKLILGNSVQIVGGSSKFQICGNKFLENGVSVGILGSKYFNTGMGVGLGISINPKESGKKAVKDAVENLGMLPKLLYVITDFCKCEEQVLKGIIEELGVTIPIFGGVSSDDFEFEHTYQYGNDVYLDSIVCVAFGGDIVPKISYNNYEYGENSGKLENIITKSEKRSIEEIGNISAVKRYIEISGYKGTVNELEKDPEFYLSHPLGILDTTGDIHLKGPISIKNKKLITGSNISNSNELKIENIDKNAIKNIFETNTSVLNNTQPHYEPALTFCNISSFLSEINPDEIEKLIEKSDINPFFGSSTFGEISLKKYGNYSMSMCSFAPDLVTISAKEGIHMFTKHPATKETLIKIHELGGSVKVEELAKSLGIHRRSAYDRIDPLLKYGFIEKDQAVIKITEFGKLLLKFEF,not soluble
18,MSQAAFVNPSILTWSRERAGLSAAQVARKLPVKPERVEEWESGEARPTFLQAQKWASVAHVPFGFLFLLQPPVEQLPLPDLRTVGNSAPLRPSLELLDTVKDAIRKQDWYLEYLHVQERQPLPFVGRFDSRTPVKTVVSDIRQTLGVDPEKSRLDYDKYSRALIDAAEVAGVLVMRSGIALGNTHRKLEVSEFRGFAISNPLAPVVFINSSDAPTARLFTLMHELAHIWIGSSGVSDAGTANGREEERFCNAVAGEFLVPEALFRTVWSASIEWESNLATLATRFHVSKLVIGRRAMDLGYVTQEQYGAYYQKILKAFRDEKGGAEDYYRNATAKNSTRLSKAVLTETLSGRMLLREAGNLLGVQPAKLRTLAAEHL,not soluble
19,MKMNVESFNLDHTKVKAPYVRIADRKKGVNGDLIVKYDVRFKQPNRDHMDMPSLHSLEHLVAEIIRNHANYVVDWSPMGCQTGFYLTVLNHDNYTEILEVLEKTMQDVLKAKEVPASNEKQCGWAANHTLEGAQNLARAFLDKRAEWSEVGVGSHHHHHH,soluble
20,MGGSHHHHHHGMASMTGGQQMGRTLYDDDDKDRWGSKIVVVGANHAGTACIKTMLTNYGDANEIVVFDQNSNISFLGSGMALWIGEQIAGPEGLFYSDKEELESLGAKVYMESPVQSIDYDAKTVTALVDGKNHVETYDKLIFATGSQPILPPIKGAEIKEGSLEFEATLENLQFVKLYQNSADVIAKLENKDIKRVAVVGAGYIGVELAEAFQRKGKEVVLIDVVDTCLAGYYDRDLTDLMAKNMEEHGIQLAFGETVKEVAGNGKVEKIITDKNEYDVDMVILAVGFRPNTTLGNGKIDLFRNGAFLVNKRQETSIPGVYAIGDCATIYDNATRDTNYIALASNAVRTGIVAAHNACGTDLEGIGVQGSNGISIYGLHMVSTGLTLEKAKRLGFDAAVTEYTDNQKPEFIEHGNFPVTIKIVYDKDSRRILGAQMAAREDVSMGIHMFSLAIQEGVTIEKLALTDIFFLPHFNKPYNYITMAALGAKD,soluble
21,MEKNFKVAALYCFADLKHYRQLQKPLLDLCQAKDIKGTLLLAQEGINGTVAGSCAAIETLVDFITAEPAFQMPEIKYSWASKMPFHRMKVRLKKEIVTMGVDGVNPLKAVGTYVDPKDWNALIQDEETLLIDTRNDYEYAIGSFQGAVDPRIKTFREFPAWVLKHEADLKKKKKIAMFCTGGIRCEKSTAYVRELGYEQVYHLKGGILKYLETIPKEDSLWWGECFVFDERVSVKHGLEECGRELCRACRSPLNTESKLSPHYEEGVSCDACYNTRSEDDRERFRERHRQFQLSKLRAMHSHQELEHHHHHH,not soluble
22,SNAMHSDALSWGHGPRLFEVFLEPTCPFSVKAFFKLDDLLAQAGEDNVTVRIRLQSQPWHMFSGVIVRCILAAATLEGGKESAKAVMTAVASHREEFEFEHHAGGPNLDATPNDIIARIERYSGLALAEAFANPELEHAVKWHTKYARQNGIHVSPTFMINGLVQPGMSSGDPVSKWVSDIG,soluble
